Test system: K4 kissing-loop RNA reporter
Test: apparent KD of K4 kissing-loop reporter; higher = weaker reporter binding
Settings: Eterna round: R107
Method: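 RNA-MaP round R107: designed RNA switches with theophylline, tryptophan, arginine or FMN aptamers are transcribed on-chip within common flanks. They are titrated with a labelled K4 kissing-loop RNA reporter in RNA-MaP buffer (100 mM Tris pH 7.5, 80 mM KCl, 4 mM MgCl2), without ligand or with the indicated ligand. Median apparent KD per design.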

[1] = input ligand: theophylline 20 uM
[2] = input ligand: tryptophan 2.4 mM
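Further: bound reporter read as fluorescence of individual clusters on recovered sequencing chips by microscopy, with normalized cluster intensities fitted with a binding model.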

| Sequence | apparent KD of K4 kissing-loop reporter (input ligand: FMN 200 uM) [µM] | apparent KD of K4 kissing-loop reporter (input ligand: arginine 13.2 mM) [µM] | apparent KD of K4 kissing-loop reporter (input ligand: none) [µM] | apparent KD of K4 kissing-loop reporter [1] [µM] | apparent KD of K4 kissing-loop reporter [2] [µM] |
| --- | --- | --- | --- | --- | --- |
| GCAGUCAAUCGACCACGAAAGUGGAUGGAUACCAGCCCGAAACCGGGCCCUUGGCAGCCAGUGAUGUUGGAAGACUGCUUUAAAA [#SwitchBubble 14 #K4Late] | 0.371 | 0.372 | 0.548 | 0.216 | 0.66 |
| GCAGUGAUGUUGCAACCGCGUACGAUGCCUCGAGGACCGGUACGGCCGCCACUCGUCCUGGUUCAGGAGCUACAGACAUAGCUCA [theeternabot_sameState_KL_Trp_A_2] | 0.563 | 0.271 | 0.781 | 0.408 | 0.291 |
| GCAGUGAUGUUGCGCAGGUACAGUGGAGUGCGAGGACCGGUACGGCCGCCACUCGUACAGAACUAGCUAAUGUAUGGAUAGGUGA [#11 K4 Tryptophan A Same State] | 0.354 | 0.329 | 0.368 | 0.47 | 0.312 |
| GCAGUGAUGUUGCGCGGGUACAGUGGAGUGCGAGGACCGGUACGGCCGCCACUCGUACAGAACUGGCUAAUAUAUGGAUAGGUGA [VII] | 0.271 | 0.169 | 0.305 | 0.169 | 0.21 |
| GCAUGACGGUAAGGAUAUAGAUAAUCCUUAUAUACGUCGAGUGAUGUUCGAUGUGCCAAGGCACAUCUAGAAGGUACUGUUAGGU [Same State FMN B GF 18] | 0.772 | 0.76 | 1.02 | 0.725 | 0.873 |
| GCCGUACGCAUGGAUACCAGACAACCAUUCUAAAUUUUGUGUCCGGUAGUGAUGUUACCUGUCCCUUGGCAGCCAUGCGUACGGC | 0.306 | 0.261 | 0.319 | 0.317 | 0.338 |
| GCCGUACGCAUGGAUACCAGAUCUAGACGCUUAGUGAUGUUAAGUAAUCUGGUUAGACCGAUCCCUUGGCAGCCAUGCGUACGGC | 0.27 | 0.199 | 0.229 | 0.203 | 0.2 |
| GCCGUACGCAUGGAUACCAGAUGGCACUAUAAUCUACCAGAGUGAUGUUCUGGCCUGCCCAUCCCUUGGCAGCCAUGCGUACGGC | 0.293 | 0.199 | 0.287 | 0.171 | 0.206 |
| GCCGUACGCAUGGAUACCAGCAAGUAUAUAUGCUAGUGAUGUUAGCGCUAUGCGAUGCGGUGCCCUUGGCAGCCAUGCGUACGGC | 0.129 | 0.0852 | 0.105 | 0.106 | 0.102 |
| GCCGUACGCAUGGAUACCAGCAAUUAUGCUCGUAUCCUAGUGAUGUUAGUGGCGAAUAUUUGCCCUUGGCAGCCAUGCGUACGGC | 1.08 | 0.841 | 1.16 | 0.691 | 0.936 |
| GCCGUAGAUGGAAGGAGCGUGGUGGACUCGUGAAGUGAUGUUUCAAGUCGUUAUGCCCAACCACAGGUAGGUCGCCAUCUACGGC | 0.277 | 0.204 | 0.27 | 0.231 | 0.251 |
| GCCGUAGAUGGAAGGAGCGUGGUUAAUGUAAGUGAUGUUUACGAGGUUAACAAUUGACCGCCACAGGUAGGUCGCCAUCUACGGC | 0.0846 | 0.0659 | 0.0741 | 0.0705 | 0.0705 |
| GCCGUAGAUGGAAGGAGCGUGUCAAAGUGAUGUUUUGAUUAACUCCCUACGGGAUAGAUGACACAGGUAGGUCGCCAUCUACGGC | 0.0652 | 0.0793 | 0.0869 | 0.115 | 0.0653 |
| GCCGUAGAUUGAAGGAGCGAGUAGGCUCACUUGCGAAGUGAAUAGCAGAGUGAUGUUCUGUCUCAGGUAGGUCGCAAUCUACGGC | 0.701 | 0.172 | 0.388 | 0.436 | 0.397 |
| GCCGUAGAUUGAAGGAGCGCCUUCUUACCAAGAGUGAUGUUCUUUGGUACCAUGUUCAGCAGGCAGGUAGGUCGCAAUCUACGGC | 0.195 | 0.142 | 0.188 | 0.155 | 0.169 |
| GCCGUAGAUUGAAGGAGCGGCACCCACGGCUCUAACACCUAAGUGAUGUUUAGGUAGUGGUGCCAGGUAGGUCGCAAUCUACGGC | 0.144 | 0.153 | 0.124 | 0.133 | 0.131 |
| GCCGUAGAUUGAAGGAGCGGCAUUAACGAUGUUCUGGUAGUGAUGUUACCUCAGCAGACAUGCCAGGUAGGUCGCAAUCUACGGC | 0.0725 | 0.0746 | 0.0936 | 0.0766 | 0.077 |
| GCCUGGGCACGAAGGAGCGCCGUGACAGGUUACUGCCGUGGGCAGUGAUGUUGCUCAAUCUGGCAGGUAGGUCGCGUGCCCAGGC | 0.137 | 0.086 | 0.184 | 0.107 | 0.121 |
| GCGCGGCUCAGUGAUGUUGAGCCUCGGAAACGAGGACCGGUACGGCCGCCACUCGUCCGCGCAGCUGAGGCAAAAGCCUCGGCAA [Omei KL Tryp A SS B v1] | 0.284 | 0.276 | 0.319 | 0.334 | 0.261 |
| GCGCGUCAUGGCGGCGGUGACUACGCCGAUACCAGCCGGGAAACCGGCCCUUGGCAGCGGCGCGCCGGAGUGAUGUUCCGACAGA [#2 Exclusion - Theophylline A Attempt #4 (HarryS)] | 0.226 | 0.275 | 0.275 | 0.37 | 0.214 |
| GCGCGUGUUAAAGGAUAUAGCAGGUGAUACAAGAAAGUGAGUGAUGUUUAUGUAGAUGAUGAUAUGUUAGAAGGUUAACAAGCGC [abcdefghijklmnopq] | 0.778 | 0.606 | 0.847 | 0.739 | 0.605 |
| GCGGGCGGCUGAAGGAGCGGGCGGGCCCGAGUGAUGUUCGGGUGGGCCGUGAGGCCCGGAGCCCAGGUAGGUCGCGGUUCCGUCC [#2 Same State - Arginine B Attempt #19 (HarryS)] | 0.162 | 0.113 | 0.126 | 0.17 | 0.147 |
| GCGGGCGGCUGAAGGAGCGGGCGGGCCCGAGUGAUGUUCGGGUGGGCUGUGAGGCCCGGAGCCCAGGUAGGUCGCGGUUCCGCCC [#2 Same State - Arginine B Attempt #26 (HarryS)] | 0.157 | 0.107 | 0.167 | 0.146 | 0.133 |

| Sequence | apparent KD of K4 kissing-loop reporter (input ligand: FMN 200 uM) [µM] | apparent KD of K4 kissing-loop reporter (input ligand: arginine 13.2 mM) [µM] | apparent KD of K4 kissing-loop reporter (input ligand: none) [µM] | apparent KD of K4 kissing-loop reporter [1] [µM] | apparent KD of K4 kissing-loop reporter [2] [µM] |
| --- | --- | --- | --- | --- | --- |
| GCGUGCAAGUCAUGAUGCCCUAUCAGGACUAAGGAUAUAGCGUGACCUAGAAGGUAGCUAGUGAUGUUGGCUGACAUGCUACUGC [theeternabot_exclusion_KL_FMN_A_49] | 0.482 | 0.227 | 0.367 | 0.376 | 0.376 |
| GCGUUAGUACUCGAUACCAGACCUCUAGUAGUGAUGUUGCUUGGCGAAGGCCUCGAACGAGUCCCUUGGCAGCGAGGAAAGAGGA [theeternabot_sameState_KL_Theo_B_4] | 0.506 | 0.387 | 0.584 | 0.376 | 0.45 |
| GCGUUCAUGGCAGGAUAUAGGUAAAGGAGUGAUGUUCCUUAUGUUGCAUUUACUUAAUCCAACUCCCUAGAAGGGCCAUGAACGC | 0.123 | 0.14 | 0.151 | 0.139 | 0.146 |
| GCUACUGCCUUAGGAUAUAGUUGAGUGAUGUUCAAGCAUAUGCAUGGGAAAACCAUGCAUAUGUCCCUAGAAGGGAGGCAGUAGC | 0.8 | 0.627 | 0.859 | 0.63 | 0.74 |
| GCUAUGGUAGGAAGGAGCGCGGACGAAAUAUAUCGAGUGAUGUUCGAAUAAUUAAAUAAAACGCAGGUAGGUCGCCUACUAUAGC [Arginine B K4 25] | 0.116 | 0.114 | 0.11 | 0.12 | 0.0976 |
| GCUAUGGUAGGAAGGAGCGCGGACGAUAUUUAUCGAGUGAUGUUCGAAUAAUUAAAUAAAACGCAGGUAGGUCGCCUACUAUAGC [Arginine B K4 27] | 0.108 | 0.113 | 0.0999 | 0.102 | 0.094 |
| GCUAUGGUAGGAAGGAGCGCUACUUUGUUUUUACGAGUGAUGUUCGGAAGCAGAGUGUUAAAGCAGGUAGGUCGCCUACUAUAGC [Arginine B K4 20] | 0.171 | 0.154 | 0.171 | 0.181 | 0.197 |
| GCUAUGGUAGGAAGGAGCGCUUAAUUACUAAUAAGAGUGAUGUUCGAUAGUAGGUAUUUAUAGCAGGUAGGUCGCCUACUAUAGC [KL-Arg B23] | 0.2 | 0.171 | 0.176 | 0.244 | 0.174 |
| GCUAUGGUUGGAAGGAGCGUUGAAUUGUUAGUAAGAGUGAUGUUCGAUAGUGGACAGUUGUAGCAGGUAGGUCGCCAACUAUAGC [KL-Arg B28] | 0.329 | 0.57 | 0.277 | 0.56 | 0.52 |
| GGAACGUUGCGGACUAUCGCAUAAAGUCACCGAGGACCGGUACGGCCGCCACUCGCCAGUGAUGUUGGCGUGUUUGCGCGCUGUA [Isteri] | 0.0996 | 0.0911 | 0.101 | 0.0836 | 0.117 |
| GGAAGGAAGGGAAGGAGCGCGCAGGCAGUGAUGUUGCCAAACAAAACAAACAAAACAAAAGCGCAGGUAGGUCGCCCGAAGGACG | 0.0678 | 0.0928 | 0.0897 | 0.126 | 0.0629 |
| GGACCGCCAGUGAUGUUGGAGAUAAACUCCAAGGAUAUGACGAAAGUCAGAAGGUGGUAAUAAGACGUCAAAGACGUCAGGUCCA [FmnA 21 #SwitchBubble #K4Early] | 0.97 | 0.206 | 0.361 | 0.301 | 0.266 |
| GGAGAGGUCUUGUUUGGAUGUGUUUAAUGGCGAGGACCGGUACGGCCGCCACUCGGGUGAUGUUAGUGAUGUUGAUGUUGUGAUG ['oo'mullin] | 0.137 | 0.131 | 0.125 | 0.219 | 0.116 |
| GGAGGAGAAUAUGAUACCAGCAGAGAGAGAGAGGAAGUAUAGUGAUGUUAUAUGAGAGAAUGCCCUUGGCAGCAUAAGAAGAAGG [SSTheophylB.A] | 0.15 | 0.105 | 0.136 | 0.123 | 0.105 |
| GGAGGGAUCUCGGCCGCCACUCAUAAGAAAUGAACCUAAGAAAUAUAGUGAUGUUAUAUAAAGAAGAGGACCGGGAGAAAGGAGG [ExTryptoB.A] | 0.148 | 0.171 | 0.197 | 0.555 | 0.171 |
| GGAGGGAUCUCGGCCGCCACUCAUAAGAAAUGAACCUCAGAAAUAUAGUGAUGUUAUAUAAAGAAGAGGACCGGGAGAAAGGAGG [ExTryptoB.B] | 0.167 | 0.137 | 0.161 | 0.158 | 0.168 |
| GGAGUGAUGUUCCAUUUUUAAAUCUCCGAUACCAGUAUGGAAACAUACCCUUGGCAGCGGUAAACCGCAGAUUAGGAAACUAGUC [Theophylline A K4 1] | 0.496 | 0.682 | 0.615 | 0.501 | 0.561 |
| GGAUAACAGGCAGGAUAUGCUUAGUAGUAAGGCCAUAUAUACGUAUAGAGUGAUGUUUUGUACAAGGCAGAAGGGCUAAAUCCAU [FMN B Excl V2 (+4G)] | 0.536 | 0.24 | 0.421 | 0.393 | 0.254 |
| GGAUAGGACAAAGGAUAUGGUAGUGAUGUUACCAAACUGGUUAAACAUGUCAGAAAACUGGCAUGACCAGAAGGUUGUCCUAUCG [FmnBX 27 A11+U75] | 0.0864 | 0.0628 | 0.0663 | 0.0611 | 0.0669 |
| GGAUAGGACAGAGGAUAUGGACAGUCUACAAAGUAGGCUGAAUAAAUCCUUGAAUGGAGUGAUGUUCCAGAAGGCUGUCCUAUCG [FmnBX 22 #SwitchBubble #StaticStem #Palindromic] | 0.337 | 0.384 | 0.503 | 0.481 | 0.426 |
| GGAUAGGACAGAGGAUAUGGGCUAGGCAAGAAUAACUUGUCUAGCAAAUCCAUGAGGAGUGAUGUUCCAGAAGGUUGUCCUAUCG [FmnBX 1 U75] | 0.284 | 0.108 | 0.0923 | 0.12 | 0.0878 |
| GGAUAGGACAGAGGAUAUGGUAGUGAUGUUACCAAACUGGUUACUAAUGUCAGAAAACUGGCAAAUCCAGAAGGCUGUCCUAUCG [KL-XFMN-B13] | 0.278 | 0.0763 | 0.0852 | 0.0695 | 0.0823 |

— the supplement of paper PMC9170038
